Laboratory results published in publication PMC2132754.

Target: recombinant mouse α-catenin with a COOH-terminal histidine tag (mouse) (UniProt P26231)
Assay: co-sedimentation

UniProt P26231, sequence (P26231 whole entry): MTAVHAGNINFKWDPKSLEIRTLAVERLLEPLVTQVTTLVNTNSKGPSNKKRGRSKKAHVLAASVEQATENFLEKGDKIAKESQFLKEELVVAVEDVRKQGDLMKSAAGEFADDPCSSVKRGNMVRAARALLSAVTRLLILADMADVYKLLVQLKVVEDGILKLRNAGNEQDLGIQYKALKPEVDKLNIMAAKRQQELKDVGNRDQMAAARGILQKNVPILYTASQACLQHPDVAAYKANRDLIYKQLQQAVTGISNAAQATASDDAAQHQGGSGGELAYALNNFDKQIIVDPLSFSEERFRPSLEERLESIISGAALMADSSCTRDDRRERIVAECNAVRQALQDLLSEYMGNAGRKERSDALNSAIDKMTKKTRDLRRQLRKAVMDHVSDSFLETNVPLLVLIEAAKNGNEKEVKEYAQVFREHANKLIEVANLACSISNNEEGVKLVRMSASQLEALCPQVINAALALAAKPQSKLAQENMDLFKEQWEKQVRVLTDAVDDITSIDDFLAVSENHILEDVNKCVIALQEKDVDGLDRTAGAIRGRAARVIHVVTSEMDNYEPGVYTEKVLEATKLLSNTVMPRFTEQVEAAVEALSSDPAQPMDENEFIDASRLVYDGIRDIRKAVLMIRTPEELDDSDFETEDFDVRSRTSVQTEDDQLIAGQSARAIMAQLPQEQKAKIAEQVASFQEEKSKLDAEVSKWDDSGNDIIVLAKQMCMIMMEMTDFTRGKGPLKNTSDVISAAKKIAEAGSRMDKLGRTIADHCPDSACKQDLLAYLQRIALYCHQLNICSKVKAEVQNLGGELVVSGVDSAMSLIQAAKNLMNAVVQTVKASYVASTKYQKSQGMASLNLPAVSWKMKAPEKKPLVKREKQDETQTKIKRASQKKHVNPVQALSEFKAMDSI

vinculin 90-kD head fragment (V8 protease fragment of chicken gizzard vinculin) (domain or fragment)
stoichiometry N: 1
